In this series the test system is ATP. The series is described as follows: switch fluorescence ratio, 500 uM ATP over buffer (Cy3 cluster intensity, sum of 5 cycles each) (fold (ratio)); higher = stronger signal-on switching upon ATP binding; sequences stand for … in TCGTCGGCAGCGTCAGATGTGTATAAGAGACAGTTTTTTTTTTTTTTTTTTTTTTTTT…TC. The note with it: aptamer strand: ATP DNA aptamer (quencher-CACCTGGGGGAGTATTGCGGAGGAAGG + anchor), 100 nM annealed; ATP concentration: 500 uM. The procedure, abridged:
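Values give the fluorescence ratio for each switch-domain sequence, averaged from per-cluster ratios of summed target-cycle to summed buffer-cycle Cy3 intensity. The Cy3-labelled switching-strand clusters sat on a modified Illumina MiSeq flow-cell, were annealed to 100 nM quencher-labelled ATP aptamer, and were imaged in selection buffer, then after 15 min with 500 uM ATP at 22 °C. Five cycles ran with NaOH stripping and re-annealing between them, and clusters outside 100-1000 RFU were excluded.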

± gives the standard deviation of the averaged measurements.
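Also: ATP exposure 15 min at 22 °C before imaging.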

As to TGGGGTTTAG, the switch fluorescence ratio is 0.99 ± 0.024.
Under TGGGTAAAAA stands 0.995 ± 0.014; under TGGGTAAAGA, 0.981 ± 0.049; under TGGGTAAGGG, 1.01 ± 0.03.
Under TGGGTAATGG stands 1.01 ± 0.038; under TGGGTACGCA, 1.03 ± 0.027.
As for TGGGTAGAAG, the switch fluorescence ratio came to 0.9916 ± 0.0014.
On to TGGGTAGGAG, for which the switch fluorescence ratio worked out at 0.987 ± 0.025.
Under TGGGTAGGGG stands 0.985 ± 0.025; under TGGGTAGTAC, 1.04 ± 0.039; under TGGGTAGTAT, 0.977 ± 0.012.
For the sequence TGGGTATGG, the switch fluorescence ratio came to 1.07 ± 0.072.
On to TGGGTCAGTG, for which the switch fluorescence ratio is 1 ± 0.021.
With TGGGTCCGTG, the switch fluorescence ratio is 0.963 ± 0.033.
In the case of TGGGTCGGGT it was 0.9817 ± 0.0088.
Regarding TGGGTCTTTT, the switch fluorescence ratio is 1.01 ± 0.054.
TGGGTGACGG: the switch fluorescence ratio was 0.958 ± 0.036.
For the sequence TGGGTGAGAT, the switch fluorescence ratio amounted to 1.01 ± 0.032.
Under TGGGTGAGCT stands 1.01 ± 0.036; under TGGGTGAGGG, 1 ± 0.0037; under TGGGTGATAT, 0.989 ± 0.018.
On to TGGGTGCACG, for which the switch fluorescence ratio came out at 0.996 ± 0.057.
Take TGGGTGCATG: the switch fluorescence ratio was determined as 0.9897 ± 0.0049.
Consider TGGGTGCCGG, for which the switch fluorescence ratio was 0.929 ± 0.11.
For TGGGTGGCGA, the switch fluorescence ratio was 1.02 ± 0.043.
As to TGGGTGGCGG, the switch fluorescence ratio worked out at 0.945 ± 0.052.
As for TGGGTGTCTG, the switch fluorescence ratio worked out at 0.9826 ± 0.0043.
Under TGGGTTACGA stands 1.04 ± 0.035.
For TGGGTTAGAT, the switch fluorescence ratio stood at 0.976 ± 0.025.
With TGGGTTATAG, the switch fluorescence ratio amounted to 0.9786 ± 0.0038.
On to TGGGTTATGG, for which the switch fluorescence ratio turned out to be 0.972 ± 0.016.
On to TGGGTTATTT, for which the switch fluorescence ratio came out at 1 ± 0.038.
TGGGTTCGAG: the switch fluorescence ratio is 1.005 ± 0.0097.
In the case of TGGGTTGGGT, the switch fluorescence ratio turned out to be 0.993 ± 0.022.
For the sequence TGGGTTGGTT, the switch fluorescence ratio came to 1 ± 0.036.
On to TGGGTTGTTG, for which the switch fluorescence ratio turned out to be 0.985 ± 0.038.
On to TGGGTTTACG, for which the switch fluorescence ratio is 1.03 ± 0.029.
In the case of TGGGTTTAGG, the switch fluorescence ratio turned out to be 1.02 ± 0.025.
Under TGGGTTTGC stands 0.98 ± 0.054; under TGGGTTTGCT, 1.001 ± 0.0063; under TGGGTTTGTA, 0.984 ± 0.019.
Under TGGTAAAAAG stands 1.025 ± 0.0047; under TGGTAAAAGG, 0.991 ± 0.038.
As for TGGTAAAGTA, the switch fluorescence ratio was found to be 0.991 ± 0.02.
As to TGGTACCTTG, the switch fluorescence ratio turned out to be 1.19 ± 0.26.
As to TGGTACGGGT, the switch fluorescence ratio worked out at 1.03 ± 0.011.
As to TGGTAGAGAG, the switch fluorescence ratio was determined as 0.9883 ± 0.0075.
Turning to TGGTAGATT, the switch fluorescence ratio worked out at 1.01 ± 0.046.
Consider TGGTAGCTGT, for which the switch fluorescence ratio was found to be 1.01 ± 0.062.
Under TGGTAGGATG stands 0.964 ± 0.05; under TGGTATCGGC, 0.992 ± 0.01; under TGGTATTGCA, 0.999 ± 0.028.
In the case of TGGTATTTTT it was 0.991 ± 0.029; in that of TGGTCAAAAA, 0.9972 ± 0.0036.
Under TGGTCATTGC stands 1.064 ± 0.0086.
In the case of TGGTCCAGCG, the switch fluorescence ratio came out at 0.998 ± 0.015.
In the case of TGGTCCTCCG it was 1.87 ± 0.31.
In the case of TGGTCGGCAA it was 1.045 ± 0.0081.
In the case of TGGTCTAGGT it was 1.01 ± 0.028; in that of TGGTCTGCCC, 0.975 ± 0.053.
Take TGGTCTTCAT: the switch fluorescence ratio worked out at 1 ± 0.022.
Take TGGTGAAATG: the switch fluorescence ratio stood at 1 ± 0.013.
With TGGTGAAGGG, the switch fluorescence ratio came to 0.976 ± 0.016.
For the sequence TGGTGACTTA, the switch fluorescence ratio worked out at 0.974 ± 0.039.
On to TGGTGAGGGT, for which the switch fluorescence ratio worked out at 0.999 ± 0.025.
Consider TGGTGATGGC, for which the switch fluorescence ratio was determined as 0.991 ± 0.012.
As to TGGTGATGGT, the switch fluorescence ratio amounted to 1.03 ± 0.058.
On to TGGTGCACC, for which the switch fluorescence ratio stood at 0.983 ± 0.042.
As to TGGTGCCCCA, the switch fluorescence ratio was found to be 1.03 ± 0.023.
As for TGGTGCGGGG, the switch fluorescence ratio came out at 0.999 ± 0.026.
In the case of TGGTGGCCGC, the switch fluorescence ratio stood at 0.982 ± 0.032.
In the case of TGGTGGGATG it was 0.977 ± 0.021; in that of TGGTGGGATT, 0.995 ± 0.012; in that of TGGTGGGGGC, 1 ± 0.052.
For the sequence TGGTGGGTGT, the switch fluorescence ratio amounted to 0.987 ± 0.024.
TGGTGGGTTC: the switch fluorescence ratio came to 1.03 ± 0.067.
Regarding TGGTGGTGGT, the switch fluorescence ratio worked out at 1.01 ± 0.033.
TGGTGGTTTT: the switch fluorescence ratio is 1.03 ± 0.025.
Take TGGTGTATGT: the switch fluorescence ratio was 0.995 ± 0.022.
Take TGGTGTGGAG: the switch fluorescence ratio is 1.062 ± 0.006.
With TGGTGTTGGA, the switch fluorescence ratio came out at 0.9906 ± 0.0068.
For TGGTTACCGA, the switch fluorescence ratio is 1 ± 0.014.
On to TGGTTACTGT, for which the switch fluorescence ratio was 1.02 ± 0.022.
Regarding TGGTTAGGGG, the switch fluorescence ratio is 1.06 ± 0.084.
Take TGGTTAGTTT: the switch fluorescence ratio is 0.997 ± 0.016.
In the case of TGGTTATATT it was 1.02 ± 0.026.
Turning to TGGTTCCCAG, the switch fluorescence ratio came out at 1.04 ± 0.031.
As for TGGTTCGCTA, the switch fluorescence ratio turned out to be 1.02 ± 0.013.
For TGGTTCGGAA, the switch fluorescence ratio was 1.016 ± 0.0048.
Take TGGTTCTAG: the switch fluorescence ratio was found to be 0.989 ± 0.024.
Turning to TGGTTCTTTT, the switch fluorescence ratio worked out at 1.02 ± 0.056.
As for TGGTTGACGA, the switch fluorescence ratio amounted to 1.01 ± 0.14.
In the case of TGGTTGCGGC it was 0.986 ± 0.03; in that of TGGTTGGGAT, 1 ± 0.04; in that of TGGTTGGGGT, 1.01 ± 0.054.
As for TGGTTGGT, the switch fluorescence ratio is 0.9755 ± 0.0095.
Turning to TGGTTGTCCC, the switch fluorescence ratio turned out to be 1.01 ± 0.038.
As to TGGTTGTTCC, the switch fluorescence ratio came to 1.03 ± 0.025.
Under TGGTTGTTTT stands 0.99 ± 0.018; under TGGTTTAAGG, 0.9844 ± 0.0088; under TGGTTTAAGT, 0.987 ± 0.027.
Turning to TGGTTTAATT, the switch fluorescence ratio was 1.01 ± 0.017.
Consider TGGTTTATAT, for which the switch fluorescence ratio came out at 1 ± 0.013.
On to TGGTTTCCCA, for which the switch fluorescence ratio was determined as 0.9738 ± 0.0042.
Turning to TGGTTTGCGC, the switch fluorescence ratio was found to be 1.36 ± 0.46.
With TGGTTTGGGC, the switch fluorescence ratio stood at 0.984 ± 0.034.
For the sequence TGGTTTGTAT, the switch fluorescence ratio was 1 ± 0.029.
For the sequence TGGTTTGTGG, the switch fluorescence ratio was found to be 0.974 ± 0.037.
On to TGGTTTTAGC, for which the switch fluorescence ratio worked out at 0.9886 ± 0.0028.
With TGGTTTTCGT, the switch fluorescence ratio worked out at 1.01 ± 0.028.
Consider TGGTTTTGTG, for which the switch fluorescence ratio was 0.9862 ± 0.0015.
Turning to TGGTTTTTGC, the switch fluorescence ratio turned out to be 0.961 ± 0.057.
As for TGGTTTTTTA, the switch fluorescence ratio was found to be 0.993 ± 0.025.
TGTAAAAGGT: the switch fluorescence ratio turned out to be 1.04 ± 0.092.
Under TGTAAAGGCG stands 0.953 ± 0.039; under TGTAAAGGGA, 0.998 ± 0.024; under TGTAACCTTT, 1.04 ± 0.018.
Take TGTAAGCCTT: the switch fluorescence ratio stood at 1.03 ± 0.079.
For the sequence TGTAAGCTGG, the switch fluorescence ratio is 1.03 ± 0.073.
For TGTAAGGGAC, the switch fluorescence ratio is 1.07 ± 0.034.

These data come from the supplement of paper PMC10126150.
